Test [1] addresses T1, low molecular weight gingipain R (RgpB) (Porphyromonas gingivalis, UniProt P95493 230-664). Nature of the test: cell-based or functional assay.
Another test has as its target gingipain K (Kgp) (Porphyromonas gingivalis). Nature of the test: enzyme inhibition kinetics.
The target of test [2] is T1, low molecular weight gingipain R (RgpB). Nature of the test: enzyme inhibition kinetics.
For test [3] the target is unchanged. Nature of the test: enzyme inhibition kinetics. This is another data set of the same source.
Test [4] shares this target. Nature of the test: cell-based or functional assay. This is another data set of the same source.
Test [5] deals with membrane-type RgpB (mt-RgpB), glycosylated (Porphyromonas gingivalis, UniProt P95493 230-736, heavily glycosylated). Nature of the test: cell-based or functional assay.
Test [6] addresses T1, low molecular weight gingipain R (RgpB). Nature of the test: SEC.

B1: PD_(RgpA), recombinant N-terminal prodomain of RgpA (domain or fragment)
chain: QQTELGRNPNVRLLESTQQSVTKVQFRMDNLKFTEVQTPKGMAQVPTYTEGVNLSEKGMPTLPILSRSLAVSDTREMKVEVVSSKFIEKKNVLIAPSKGMIMRNEDPKKIPYVYGKSYSQNKFFPGEIATLDDPFILRDVRGQVVNFAPLQYNPVTKTLRIYTEITVAVSETSEQGKNILNKKGTFAGFEDTYKRMFMNYEPGR
For the molecule B1, in test [1], the “IC50 of inhibition of amidolytic activity (L-BAPNA), 10 nM enzyme” value came out at 15.7 nM; the “IC50 of inhibition of aminopeptidase activity (H-Arg-AMC), 10 nM enzyme” value was found to be 6.9 nM; the “IC50 of inhibition of proteolytic activity (Azocoll), 10 nM enzyme” value stood at 7.3 nM. Further, the Ki in the test with gingipain K (Kgp) is above 5000 nM. In addition, in test [2], the dissociation rate constant (koff) came out at 1.3e-05 s⁻¹ and the on-rate constant (kon) was 6070 M⁻¹ s⁻¹. In test [3], this molecule displayed a Ki of 2.1 nM.

B2: PD_(RgpB), recombinant N-terminal prodomain of RgpB (domain or fragment)
chain: GPLGSQPAERGRNPQVRLLSAEQSMSKVQFRMDNLQFTGVQTSKGVAQVPTFTEGVNISEKGTPILPILSRSLAVSETRAMKVEVVSSKFIEKKDVLIAPSKGVISRAENPDQIPYVYGQSYNEDKFFPGEIATLSDPFILRDVRGQVVNFAPLQYNPVTKTLRIYTEIVVAVSETAEAGQNTISLVKNSTFTGFEDIYKSVFMNYEATR
Regarding B2, in test [1], the “IC50 of inhibition of amidolytic activity (L-BAPNA), 10 nM enzyme” value is 23.7 nM; the “IC50 of inhibition of aminopeptidase activity (H-Arg-AMC), 10 nM enzyme” value was found to be 7.2 nM; the “IC50 of inhibition of proteolytic activity (Azocoll), 10 nM enzyme” value came out at 7.1 nM. Besides, the “IC50 of inhibition of Rgp activity (L-BAPNA): RgpB (purified non-glycosylated)” value in test [4] turned out to be 15 nM. For the same molecule, the “IC50 of inhibition of Rgp activity (L-BAPNA): mt-RgpB (purified)” value in test [5] turned out to be 188 nM. Also, the inhibition constant Ki with gingipain K (Kgp) is above 5000 nM. In addition, the “stoichiometry N” value in test [6] is 1. In test [2], this molecule displayed a koff of 3.1e-05 s⁻¹ and a kon of 5020 M⁻¹ s⁻¹. For the same molecule, the Ki in test [3] is 6.2 nM.

These data come from paper PMC3773880 (Biochimica et biophysica acta, 2013).
